# US20100204147A1, “Methods For Delivering Thymosin Beta 4, Analogues, Isoforms and Other Derivatives” (REGENERX BIOPHARMACEUTICALS, INC., priority 2003, published 2010)
# Molecular target: T1, fibrinogen (Homo sapiens, UniProt P02671)
# T1 construct: purchased Enzyme Research Laboratories (South Bend, Ind.)
# T1 sequence (P02671 20-644 isoform P02671-2 limits assumed): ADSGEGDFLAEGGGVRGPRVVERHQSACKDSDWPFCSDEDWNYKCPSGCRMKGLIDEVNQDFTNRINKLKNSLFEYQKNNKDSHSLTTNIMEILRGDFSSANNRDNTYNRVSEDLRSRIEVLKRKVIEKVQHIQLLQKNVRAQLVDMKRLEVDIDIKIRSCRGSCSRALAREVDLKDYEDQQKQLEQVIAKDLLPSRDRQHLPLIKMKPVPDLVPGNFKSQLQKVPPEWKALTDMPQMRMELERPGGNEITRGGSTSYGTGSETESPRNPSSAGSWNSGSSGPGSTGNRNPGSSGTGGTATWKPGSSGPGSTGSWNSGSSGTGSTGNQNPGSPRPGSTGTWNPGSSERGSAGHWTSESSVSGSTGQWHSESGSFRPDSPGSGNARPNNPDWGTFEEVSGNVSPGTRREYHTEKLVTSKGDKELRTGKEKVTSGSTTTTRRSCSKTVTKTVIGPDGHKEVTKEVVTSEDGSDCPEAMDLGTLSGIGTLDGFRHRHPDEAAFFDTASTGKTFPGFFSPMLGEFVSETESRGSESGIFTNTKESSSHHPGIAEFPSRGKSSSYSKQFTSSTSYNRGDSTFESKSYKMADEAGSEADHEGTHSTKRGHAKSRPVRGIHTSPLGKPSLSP
# T1 sequence (P02675 31-491 partner): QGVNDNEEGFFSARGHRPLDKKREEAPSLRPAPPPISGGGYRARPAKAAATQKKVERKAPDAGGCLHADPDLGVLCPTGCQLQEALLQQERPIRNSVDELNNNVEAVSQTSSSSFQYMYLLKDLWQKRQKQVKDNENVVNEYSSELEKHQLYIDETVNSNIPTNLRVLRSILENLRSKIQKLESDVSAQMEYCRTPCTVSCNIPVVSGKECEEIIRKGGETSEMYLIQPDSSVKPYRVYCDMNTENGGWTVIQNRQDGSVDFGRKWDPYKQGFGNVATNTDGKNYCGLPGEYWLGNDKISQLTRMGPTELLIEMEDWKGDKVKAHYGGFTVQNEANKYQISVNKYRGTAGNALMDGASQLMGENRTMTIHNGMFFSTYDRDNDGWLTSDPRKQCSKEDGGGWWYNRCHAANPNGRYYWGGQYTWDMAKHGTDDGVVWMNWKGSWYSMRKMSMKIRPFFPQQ
# T1 sequence (P02679 27-437 isoform P02679-2 partner limits assumed): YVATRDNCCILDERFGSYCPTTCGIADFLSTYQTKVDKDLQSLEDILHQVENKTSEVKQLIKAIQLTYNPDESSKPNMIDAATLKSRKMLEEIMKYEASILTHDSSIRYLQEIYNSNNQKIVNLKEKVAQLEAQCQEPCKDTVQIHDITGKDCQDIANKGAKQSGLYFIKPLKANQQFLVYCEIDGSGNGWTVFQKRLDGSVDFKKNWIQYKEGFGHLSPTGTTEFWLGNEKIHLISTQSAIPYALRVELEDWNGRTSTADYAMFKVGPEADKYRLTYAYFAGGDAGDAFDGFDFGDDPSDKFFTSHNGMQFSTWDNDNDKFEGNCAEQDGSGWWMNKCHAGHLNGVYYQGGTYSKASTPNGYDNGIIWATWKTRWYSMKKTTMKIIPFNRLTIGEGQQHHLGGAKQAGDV
# Test: Factor XIIIa-mediated incorporation of FITC-labeled thymosin β4 into fibrinogen (spectrophotometric)
# Type: biochemical
# Experimental: Reactions of incorporation of FITC-labeled and unlabeled thymosin β4 into fibrinogen and fibrin were performed in Eppendorf tubes containing a mixture of fibrinogen at 3 mg/mL (9 μM) and thymosin β4 or FITC-labeled thymosin β4 at […] (30 μM) in 100 μL TBS with 2.5 mM CaCl2. The reactions were initiated by addition of FXIIIa(Ca) or FXIIIa(Thr) to final concentration of 30 μg/mL. The final concentration of thrombin in the FXIIIa(Thr)-containing mixtures was made at 2.5 NIH u/mL, sufficient to rapidly form fibrin clot which was observed visually. The reactions with FITC-labeled thymosin β4 lasted for 4 hours at 37° C. in the dark and were stopped by heat inactiviation of the enzymes in boiling water for 5 min during fibrinogen and fibrin denatured and precipitated. The pellets were centrifuged and washed 3 times in TBS and then solubilized. The amounts of fibrin(ogen) and FITC-labeled thymosin β4 in the solubilized pellet were determined spectrophotomertrically using absorption molar coefficients E280,1%=15.0 and ε495=72,000 M^−1cm^−1, respectively. To prepare samples with unlabeled thymosin β4 for analysis by SDS-PAGE and Western blot the reaction mixtures at the indicated time were heat-inactivated as above and solubilized by addition of sample buffer (Invitrogen) containing SDS and reducing agent.
substance,measurement,setting,value
thymosin β4,degree of incorporation into fibrinogen,"fibrinogen 9 μM, thymosin β4 30 μM, factor XIIIa, 4 hours, 37° C.",0.2 moles per mole
same,molar incorporation ratio of thymosin β4 to fibrinogen,physiological concentrations of fibrin(ogen) and factor XIII,0.2
